# Source: publication PMC8167298, “Structural Investigations of Human A2M Identify a Hollow Native Conformation That Underlies Its Distinctive Protease-Trapping Mechanism” (Molecular & Cellular Proteomics : MCP, 2021)
# Legend:
# [1] = molecular target: the molecule itself; assay: nonreducing SDS-PAGE; nonreducing SDS-PAGE on 5 to 15% gradient gels; shows disulfide-linked oligomers; DSSO-cross-linked A2M-MA defines the dimer and tetramer bands
# [2] = molecular target: the molecule itself; assay: negative stain electron microscopy; A2M at 78 μg/ml on carbon-coated copper grids, 2% w/v uranyl formate; 2D classes and 3D refinement with D2 symmetry imposed, 24 Å map
# [3] = molecular target: the molecule itself; assay: SEC; Sephacryl S-300 HR column in HBS, samples after DSSO cross-linking
Protein,stoichiometry N [1],stoichiometry N [2],stoichiometry N [3]
"Human α2-macroglobulin (A2M), native conformation, plasma-purified (natural protein, UniProt P01023 24-1474, looked up, intact thiol ester between the cysteine and glutamine of the CGEQ motif; N-glycans; intersubunit Cys278/Cys431 disulfides in each disulfide-bridged dimer, α2-macroglobulin, human, from plasma; original N-terminus at position 24; Homotetramer of 720 kDa, a dimer of disulfide-bridged dimers; In the cross-linking, SEC and native PAGE rows the protein carried DSSO cross-links; SAXS was also measured on deglycosylated A2M; also called native A2M; plasma A2M; source: purified from plasma from a healthy volunteer, never frozen) SVSGKPQYMVLVPSLLHTETTEKGCVLLSYLNETVTVSASLESVRGNRSLFTDLEAENDVLHCVAFAVPKSSSNEEVMFLTVQVKGPTQEFKKRTTVMVKNEDSLVFVQTDKSIYKPGQTVKFRVVSMDENFHPLNELIPLVYIQDPKGNRIAQWQSFQLEGGLKQFSFPLSSEPFQGSYKVVVQKKSGGRTEHPFTVEEFVLPKFEVQVTVPKIITILEEEMNVSVCGLYTYGKPVPGHVTVSICRKYSDASDCHGEDSQAFCEKFSGQLNSHGCFYQQVKTKVFQLKRKEYEMKLHTEAQIQEEGTVVELTGRQSSEITRTITKLSFVKVDSHFRQGIPFFGQVRLVDGKGVPIPNKVIFIRGNEANYYSNATTDEHGLVQFSINTTNVMGTSLTVRVNYKDRSPCYGYQWVSEEHEEAHHTAYLVFSPSKSFVHLEPMSHELPCGHTQTVQAHYILNGGTLLGLKKLSFYYLIMAKGGIVRTGTHGLLVKQEDMKGHFSISIPVKSDIAPVARLLIYAVLPTGDVIGDSAKYDVENCLANKVDLSFSPSQSLPASHAHLRVTAAPQSVCALRAVDQSVLLMKPDAELSASSVYNLLPEKDLTGFPGPLNDQDNEDCINRHNVYINGITYTPVSSTNEKDMYSFLEDMGLKAFTNSKIRKPKMCPQLQQYEMHGPEGLRVGFYESDVMGRGHARLVHVEEPHTETVRKYFPETWIWDLVVVNSAGVAEVGVTVPDTITEWKAGAFCLSEDAGLGISSTASLRAFQPFFVELTMPYSVIRGEAFTLKATVLNYLPKCIRVSVQLEASPAFLAVPVEKEQAPHCICANGRQTVSWAVTPKSLGNVNFTVSAEALESQELCGTEVPSVPEHGRKDTVIKPLLVEPEGLEKETTFNSLLCPSGGEVSEELSLKLPPNVVEESARASVSVLGDILGSAMQNTQNLLQMPYGCGEQNMVLFAPNIYVLDYLNETQQLTPEIKSKAIGYLNTGYQRQLNYKHYDGSYSTFGERYGRNQGNTWLTAFVLKTFAQARAYIFIDEAHITQALIWLSQRQKDNGCFRSSGSLLNNAIKGGVEDEVTLSAYITIALLEIPLTVTHPVVRNALFCLESAWKTAQEGDHGSHVYTKALLAYAFALAGNQDKRKEVLKSLNEEAVKKDNSVHWERPQKPKAPVGHFYEPQAPSAEVEMTSYVLLAYLTAQPAPTSEDLTSATNIVKWITKQQNAQGGFSSTQDTVVALHALSKYGAATFTRTGKAAQVTIQSSGTFSSKFQVDNNNRLLLQQVSLPELPGEYSMKVTGEGCVYLQTSLKYNILPEKEEFPFALGVQTLPQTCDEPKAHTSFQISLSVSYTGSRSASNMAIVDVKMVSGFIPLKPTVKMLERSNHVSRTEVSSNHVLIYLDKVSNQTLSLFFTVLQDVPVRDLKPAIVKVYDYYETDEFAIAEYNAPCSKDLGNA",2,4,–
"A2M^3K, recombinant A2M with the Arg704Lys, Arg715Lys and Arg719Lys mutations (natural protein, human, UniProt P01023 24-1474, looked up, α2-macroglobulin, human, recombinant; the three bait region arginines replaced with lysines; The protein is secreted into the culture supernatant; also called A2M^3K (R704K R715K R719K); source: HEK293 Freestyle cells, transiently transfected, purified from the supernatant by the protocol used for plasma A2M) SVSGKPQYMVLVPSLLHTETTEKGCVLLSYLNETVTVSASLESVRGNRSLFTDLEAENDVLHCVAFAVPKSSSNEEVMFLTVQVKGPTQEFKKRTTVMVKNEDSLVFVQTDKSIYKPGQTVKFRVVSMDENFHPLNELIPLVYIQDPKGNRIAQWQSFQLEGGLKQFSFPLSSEPFQGSYKVVVQKKSGGRTEHPFTVEEFVLPKFEVQVTVPKIITILEEEMNVSVCGLYTYGKPVPGHVTVSICRKYSDASDCHGEDSQAFCEKFSGQLNSHGCFYQQVKTKVFQLKRKEYEMKLHTEAQIQEEGTVVELTGRQSSEITRTITKLSFVKVDSHFRQGIPFFGQVRLVDGKGVPIPNKVIFIRGNEANYYSNATTDEHGLVQFSINTTNVMGTSLTVRVNYKDRSPCYGYQWVSEEHEEAHHTAYLVFSPSKSFVHLEPMSHELPCGHTQTVQAHYILNGGTLLGLKKLSFYYLIMAKGGIVRTGTHGLLVKQEDMKGHFSISIPVKSDIAPVARLLIYAVLPTGDVIGDSAKYDVENCLANKVDLSFSPSQSLPASHAHLRVTAAPQSVCALRAVDQSVLLMKPDAELSASSVYNLLPEKDLTGFPGPLNDQDNEDCINRHNVYINGITYTPVSSTNEKDMYSFLEDMGLKAFTNSKIRKPKMCPQLQQYEMHGPEGLKVGFYESDVMGKGHAKLVHVEEPHTETVRKYFPETWIWDLVVVNSAGVAEVGVTVPDTITEWKAGAFCLSEDAGLGISSTASLRAFQPFFVELTMPYSVIRGEAFTLKATVLNYLPKCIRVSVQLEASPAFLAVPVEKEQAPHCICANGRQTVSWAVTPKSLGNVNFTVSAEALESQELCGTEVPSVPEHGRKDTVIKPLLVEPEGLEKETTFNSLLCPSGGEVSEELSLKLPPNVVEESARASVSVLGDILGSAMQNTQNLLQMPYGCGEQNMVLFAPNIYVLDYLNETQQLTPEIKSKAIGYLNTGYQRQLNYKHYDGSYSTFGERYGRNQGNTWLTAFVLKTFAQARAYIFIDEAHITQALIWLSQRQKDNGCFRSSGSLLNNAIKGGVEDEVTLSAYITIALLEIPLTVTHPVVRNALFCLESAWKTAQEGDHGSHVYTKALLAYAFALAGNQDKRKEVLKSLNEEAVKKDNSVHWERPQKPKAPVGHFYEPQAPSAEVEMTSYVLLAYLTAQPAPTSEDLTSATNIVKWITKQQNAQGGFSSTQDTVVALHALSKYGAATFTRTGKAAQVTIQSSGTFSSKFQVDNNNRLLLQQVSLPELPGEYSMKVTGEGCVYLQTSLKYNILPEKEEFPFALGVQTLPQTCDEPKAHTSFQISLSVSYTGSRSASNMAIVDVKMVSGFIPLKPTVKMLERSNHVSRTEVSSNHVLIYLDKVSNQTLSLFFTVLQDVPVRDLKPAIVKVYDYYETDEFAIAEYNAPCSKDLGNA",–,–,4
"Recombinant wild-type A2M (natural protein, human, UniProt P01023 24-1474, looked up, α2-macroglobulin, human, recombinant wild type; source: HEK293 Freestyle cells, transiently transfected, purified from the supernatant by the protocol used for plasma A2M) SVSGKPQYMVLVPSLLHTETTEKGCVLLSYLNETVTVSASLESVRGNRSLFTDLEAENDVLHCVAFAVPKSSSNEEVMFLTVQVKGPTQEFKKRTTVMVKNEDSLVFVQTDKSIYKPGQTVKFRVVSMDENFHPLNELIPLVYIQDPKGNRIAQWQSFQLEGGLKQFSFPLSSEPFQGSYKVVVQKKSGGRTEHPFTVEEFVLPKFEVQVTVPKIITILEEEMNVSVCGLYTYGKPVPGHVTVSICRKYSDASDCHGEDSQAFCEKFSGQLNSHGCFYQQVKTKVFQLKRKEYEMKLHTEAQIQEEGTVVELTGRQSSEITRTITKLSFVKVDSHFRQGIPFFGQVRLVDGKGVPIPNKVIFIRGNEANYYSNATTDEHGLVQFSINTTNVMGTSLTVRVNYKDRSPCYGYQWVSEEHEEAHHTAYLVFSPSKSFVHLEPMSHELPCGHTQTVQAHYILNGGTLLGLKKLSFYYLIMAKGGIVRTGTHGLLVKQEDMKGHFSISIPVKSDIAPVARLLIYAVLPTGDVIGDSAKYDVENCLANKVDLSFSPSQSLPASHAHLRVTAAPQSVCALRAVDQSVLLMKPDAELSASSVYNLLPEKDLTGFPGPLNDQDNEDCINRHNVYINGITYTPVSSTNEKDMYSFLEDMGLKAFTNSKIRKPKMCPQLQQYEMHGPEGLRVGFYESDVMGRGHARLVHVEEPHTETVRKYFPETWIWDLVVVNSAGVAEVGVTVPDTITEWKAGAFCLSEDAGLGISSTASLRAFQPFFVELTMPYSVIRGEAFTLKATVLNYLPKCIRVSVQLEASPAFLAVPVEKEQAPHCICANGRQTVSWAVTPKSLGNVNFTVSAEALESQELCGTEVPSVPEHGRKDTVIKPLLVEPEGLEKETTFNSLLCPSGGEVSEELSLKLPPNVVEESARASVSVLGDILGSAMQNTQNLLQMPYGCGEQNMVLFAPNIYVLDYLNETQQLTPEIKSKAIGYLNTGYQRQLNYKHYDGSYSTFGERYGRNQGNTWLTAFVLKTFAQARAYIFIDEAHITQALIWLSQRQKDNGCFRSSGSLLNNAIKGGVEDEVTLSAYITIALLEIPLTVTHPVVRNALFCLESAWKTAQEGDHGSHVYTKALLAYAFALAGNQDKRKEVLKSLNEEAVKKDNSVHWERPQKPKAPVGHFYEPQAPSAEVEMTSYVLLAYLTAQPAPTSEDLTSATNIVKWITKQQNAQGGFSSTQDTVVALHALSKYGAATFTRTGKAAQVTIQSSGTFSSKFQVDNNNRLLLQQVSLPELPGEYSMKVTGEGCVYLQTSLKYNILPEKEEFPFALGVQTLPQTCDEPKAHTSFQISLSVSYTGSRSASNMAIVDVKMVSGFIPLKPTVKMLERSNHVSRTEVSSNHVLIYLDKVSNQTLSLFFTVLQDVPVRDLKPAIVKVYDYYETDEFAIAEYNAPCSKDLGNA",2,–,–
"A2M^LNK/LNK, recombinant A2M with the Thr654Cys and Thr661Cys mutations (natural protein, human, UniProt P01023 24-1474, looked up, intersubunit disulfide between Cys654 and Cys661 of opposite subunits, α2-macroglobulin, human, recombinant; two cysteines introduced in the LNK region; The protein is secreted into the culture supernatant; also called A2M^LNK/LNK (T654C T661C); source: HEK293 Freestyle cells, transiently transfected, purified from the supernatant by the protocol used for plasma A2M) SVSGKPQYMVLVPSLLHTETTEKGCVLLSYLNETVTVSASLESVRGNRSLFTDLEAENDVLHCVAFAVPKSSSNEEVMFLTVQVKGPTQEFKKRTTVMVKNEDSLVFVQTDKSIYKPGQTVKFRVVSMDENFHPLNELIPLVYIQDPKGNRIAQWQSFQLEGGLKQFSFPLSSEPFQGSYKVVVQKKSGGRTEHPFTVEEFVLPKFEVQVTVPKIITILEEEMNVSVCGLYTYGKPVPGHVTVSICRKYSDASDCHGEDSQAFCEKFSGQLNSHGCFYQQVKTKVFQLKRKEYEMKLHTEAQIQEEGTVVELTGRQSSEITRTITKLSFVKVDSHFRQGIPFFGQVRLVDGKGVPIPNKVIFIRGNEANYYSNATTDEHGLVQFSINTTNVMGTSLTVRVNYKDRSPCYGYQWVSEEHEEAHHTAYLVFSPSKSFVHLEPMSHELPCGHTQTVQAHYILNGGTLLGLKKLSFYYLIMAKGGIVRTGTHGLLVKQEDMKGHFSISIPVKSDIAPVARLLIYAVLPTGDVIGDSAKYDVENCLANKVDLSFSPSQSLPASHAHLRVTAAPQSVCALRAVDQSVLLMKPDAELSASSVYNLLPEKDLTGFPGPLNDQDNEDCINRHNVYINGICYTPVSSCNEKDMYSFLEDMGLKAFTNSKIRKPKMCPQLQQYEMHGPEGLRVGFYESDVMGRGHARLVHVEEPHTETVRKYFPETWIWDLVVVNSAGVAEVGVTVPDTITEWKAGAFCLSEDAGLGISSTASLRAFQPFFVELTMPYSVIRGEAFTLKATVLNYLPKCIRVSVQLEASPAFLAVPVEKEQAPHCICANGRQTVSWAVTPKSLGNVNFTVSAEALESQELCGTEVPSVPEHGRKDTVIKPLLVEPEGLEKETTFNSLLCPSGGEVSEELSLKLPPNVVEESARASVSVLGDILGSAMQNTQNLLQMPYGCGEQNMVLFAPNIYVLDYLNETQQLTPEIKSKAIGYLNTGYQRQLNYKHYDGSYSTFGERYGRNQGNTWLTAFVLKTFAQARAYIFIDEAHITQALIWLSQRQKDNGCFRSSGSLLNNAIKGGVEDEVTLSAYITIALLEIPLTVTHPVVRNALFCLESAWKTAQEGDHGSHVYTKALLAYAFALAGNQDKRKEVLKSLNEEAVKKDNSVHWERPQKPKAPVGHFYEPQAPSAEVEMTSYVLLAYLTAQPAPTSEDLTSATNIVKWITKQQNAQGGFSSTQDTVVALHALSKYGAATFTRTGKAAQVTIQSSGTFSSKFQVDNNNRLLLQQVSLPELPGEYSMKVTGEGCVYLQTSLKYNILPEKEEFPFALGVQTLPQTCDEPKAHTSFQISLSVSYTGSRSASNMAIVDVKMVSGFIPLKPTVKMLERSNHVSRTEVSSNHVLIYLDKVSNQTLSLFFTVLQDVPVRDLKPAIVKVYDYYETDEFAIAEYNAPCSKDLGNA",4,–,–
